B2: CpcC1 (rod linker protein) (natural protein)
chain: not shown
notes: phycocyanin-associated rod linker CpcC1 of Synechocystis sp; PCC 6803; Pfam00427 domain at the N-terminus, Pfam01383 domain at the C-terminus; native protein in the isolated CpcL-PBS; model started from the AlphaFold database entry; source: endogenous, Synechocystis 6803 ΔapcAB mutant strain; purified as part of CpcL-PBS (sucrose gradient)
B3: CpcL (linker protein of CpcL-PBS) (natural protein, UniProt P74625 1-249, looked up)
chain: MTLPLIAYAPVSQNQRVTNYEVSGDEHARIFTTEGTLSPSAMDNLIAAAYRQVFNEQQMIQSNRQIALESQFKNQQITVRDFIRGLALSDSFRRRNFEVNNNYRFVQMCIQRLLGRDVYSEEEKIAWSIVIATKGLPGFINELLNSQEYLENFGYDTVPYQRRRILPQRISGELPFARMPRYGADHREKLEAIGYFRNQAPLTYRWEWQKQPYPAGVYLAGKVVLYVGGALVSLGIIAVALSAWGIIGL
notes: linker protein CpcL (also called CpcG2) of Synechocystis sp; PCC 6803; Pfam00427 domain resolved, transmembrane region not resolved in the map; native protein in the isolated CpcL-PBS; model started from the AlphaFold database entry; also called CpcG2; source: endogenous, Synechocystis 6803 ΔapcAB mutant strain; purified as part of CpcL-PBS (sucrose gradient)

Columns and labels:
Experiment in all cases: cryo-EM structure; CpcL-PBS isolated from the ΔapcAB strain on a sucrose gradient (0.75 M K/Na-PO4 pH 7.0, 0.0125% glutaraldehyde, 0.03% β-DDM, 22 °C); phosphate diluted on the grid with 50 mM Tris pH 7.0, 0.01% β-DDM; map at 2.64 Å
[1] = target: the molecule itself
[2] = target: B3; conditions: both partners purified
[3] = target: B2; conditions: both partners purified
[4] = target: T1, three-domain ferredoxin-NADP+ oxidoreductase (FNR3D) (Synechocystis sp. PCC 6803 (endogenous …, UniProt Q55318 1-413)); conditions: both partners purified
T1 construct: ferredoxin-NADP+ oxidoreductase (PetH) of Synechocystis sp; only the CpcD (Pfam01383) domain is resolved in the map; model started from the AlphaFold database entry of PetH; also called PetH; source: endogenous, Synechocystis 6803 ΔapcAB mutant strain; purified as part of CpcL-PBS (sucrose gradient)
T1 sequence (Q55318 whole entry): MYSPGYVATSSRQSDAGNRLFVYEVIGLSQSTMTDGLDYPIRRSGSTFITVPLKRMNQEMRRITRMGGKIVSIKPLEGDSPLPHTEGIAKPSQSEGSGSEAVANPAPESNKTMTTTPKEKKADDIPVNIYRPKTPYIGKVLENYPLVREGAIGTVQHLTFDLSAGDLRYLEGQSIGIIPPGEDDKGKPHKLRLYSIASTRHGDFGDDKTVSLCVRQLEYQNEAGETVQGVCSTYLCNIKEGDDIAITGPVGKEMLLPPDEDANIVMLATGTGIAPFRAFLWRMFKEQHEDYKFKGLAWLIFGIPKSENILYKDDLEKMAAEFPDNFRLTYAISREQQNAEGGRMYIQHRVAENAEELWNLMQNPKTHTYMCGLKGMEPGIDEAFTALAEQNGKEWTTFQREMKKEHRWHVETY

B1: phycocyanin (PC) αβ monomer (CpcA-CpcB heterodimer) (complex)
chain 1: not shown
chain 2: MFDVFTRVVSQADARGEYLSGSQLDALSATVAEGNKRIDSVNRITGNASAIVSNAARALFAEQPQLIQPGGNAYTSRRMAACLRDMEIILRYVTYATFTGDASVLEDRCLNGLRETYVALGVPGASVAAGVQKMKEAALDIVNDPNGITRGDCSAIVAEIAGYFDRAAAAVA
modifications: phycocyanobilin (PCB) covalently attached (bilin α84) | phycocyanobilin (PCB) covalently attached (bilins β82 and β152; printed β155 in p-0013)
notes: C-phycocyanin alpha subunit CpcA of Synechocystis sp; PCC 6803; as m1; C-phycocyanin beta subunit CpcB of Synechocystis sp; as m2; made for the self-association of the αβ monomer into trimers and hexamers; 18 αβ monomers stand in the three-layered CpcL-PBS; source: endogenous, Synechocystis 6803 ΔapcAB mutant strain; purified as part of CpcL-PBS (sucrose gradient)
With B1 the “stoichiometry N” value [1] was 6.

B2 was tested, and the “stoichiometry N” value [2] was 1.

B3: binds [3].

B4: CpcC2 (rod linker protein) (natural protein)
chain: not shown
notes: phycocyanin-associated rod linker CpcC2 of Synechocystis sp; PCC 6803; Pfam00427 domain at the N-terminus, Pfam01383 domain at the C-terminus; native protein in the isolated CpcL-PBS; model started from the AlphaFold database entry; source: endogenous, Synechocystis 6803 ΔapcAB mutant strain; purified as part of CpcL-PBS (sucrose gradient)
B4: binds [4].

B5: CpcB (phycocyanin β subunit) (natural protein, UniProt Q54714 1-172, looked up)
chain: MFDVFTRVVSQADARGEYLSGSQLDALSATVAEGNKRIDSVNRITGNASAIVSNAARALFAEQPQLIQPGGNAYTSRRMAACLRDMEIILRYVTYATFTGDASVLEDRCLNGLRETYVALGVPGASVAAGVQKMKEAALDIVNDPNGITRGDCSAIVAEIAGYFDRAAAAVA
modifications: phycocyanobilin (PCB) covalently attached (bilins β82 and β152; printed β155 in p-0013)
notes: C-phycocyanin beta subunit CpcB of Synechocystis sp; PCC 6803; native protein in the isolated CpcL-PBS; 18 copies in the three-layered CpcL-PBS; also called β-PC; PC β subunit; source: endogenous, Synechocystis 6803 ΔapcAB mutant strain; purified as part of CpcL-PBS (sucrose gradient)
B5: binds [2].

— PMC10322944, “Cryo-EM and femtosecond spectroscopic studies provide mechanistic insight into the energy transfer in CpcL-phycobilisomes” (Nature Communications, 2023)
